From PMC2276247

Molecular target: Recombinant histidine-tagged human WRN (human) (UniProt Q14191)
Sequence (Q14191 whole entry): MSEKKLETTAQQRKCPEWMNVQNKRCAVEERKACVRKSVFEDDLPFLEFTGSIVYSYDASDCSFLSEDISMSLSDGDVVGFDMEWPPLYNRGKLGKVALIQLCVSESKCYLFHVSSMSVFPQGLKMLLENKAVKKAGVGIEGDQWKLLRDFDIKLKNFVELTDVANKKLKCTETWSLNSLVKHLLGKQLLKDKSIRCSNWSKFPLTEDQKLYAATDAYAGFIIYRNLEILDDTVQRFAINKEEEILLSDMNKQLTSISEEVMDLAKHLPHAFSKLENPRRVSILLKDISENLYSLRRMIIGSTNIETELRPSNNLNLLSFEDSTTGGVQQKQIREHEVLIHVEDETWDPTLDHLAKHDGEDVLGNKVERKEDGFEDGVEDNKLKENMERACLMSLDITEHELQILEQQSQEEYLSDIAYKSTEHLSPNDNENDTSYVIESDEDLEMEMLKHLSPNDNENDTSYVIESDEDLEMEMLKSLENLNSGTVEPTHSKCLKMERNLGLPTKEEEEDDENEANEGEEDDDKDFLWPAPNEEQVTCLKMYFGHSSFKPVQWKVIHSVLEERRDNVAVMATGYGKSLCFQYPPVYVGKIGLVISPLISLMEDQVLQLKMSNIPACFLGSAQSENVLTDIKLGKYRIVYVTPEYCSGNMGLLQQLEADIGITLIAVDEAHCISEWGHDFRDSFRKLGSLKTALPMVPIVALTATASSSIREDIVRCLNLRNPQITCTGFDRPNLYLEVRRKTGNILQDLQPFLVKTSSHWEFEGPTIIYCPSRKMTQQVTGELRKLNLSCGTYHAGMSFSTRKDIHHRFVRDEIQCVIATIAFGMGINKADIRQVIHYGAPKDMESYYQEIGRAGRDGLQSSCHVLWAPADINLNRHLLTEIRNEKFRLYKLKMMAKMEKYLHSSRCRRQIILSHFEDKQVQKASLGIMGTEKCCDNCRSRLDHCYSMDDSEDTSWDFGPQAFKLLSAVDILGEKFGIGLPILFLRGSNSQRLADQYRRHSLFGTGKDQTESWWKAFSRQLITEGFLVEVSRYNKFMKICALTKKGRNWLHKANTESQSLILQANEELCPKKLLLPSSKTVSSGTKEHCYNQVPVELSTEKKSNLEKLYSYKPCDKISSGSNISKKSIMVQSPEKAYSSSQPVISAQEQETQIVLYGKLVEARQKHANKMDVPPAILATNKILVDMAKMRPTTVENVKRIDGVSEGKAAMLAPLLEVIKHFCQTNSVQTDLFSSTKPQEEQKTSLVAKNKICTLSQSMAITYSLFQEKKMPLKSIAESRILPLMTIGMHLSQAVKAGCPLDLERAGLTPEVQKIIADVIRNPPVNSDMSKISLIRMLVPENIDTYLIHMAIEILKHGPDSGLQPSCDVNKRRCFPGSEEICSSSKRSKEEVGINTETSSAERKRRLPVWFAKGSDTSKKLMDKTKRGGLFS

WRN helicase activity on a 22 bp forked duplex with p300 in the absence of acetyl CoA, at the highest WRN concentration: 2 fold
Substance: recombinant human p300 (histone acetyltransferase enzyme p300), Q09472 1-2414
